# Reference: US20200102347A1 (AUCTUS BIOLOGIES, published 2020)
# No end group written: not given here. *: point of attachment. RhodamineB = CCN(CC)c1ccc2c(-c3ccccc3C(=O)*)c3ccc(=[N+](CC)CC)cc-3oc2c1
# T1: NativeRPtag(large)_with_Tags_and_Cys (Thermoanaerobacter tengcongensis)
# T1 chain: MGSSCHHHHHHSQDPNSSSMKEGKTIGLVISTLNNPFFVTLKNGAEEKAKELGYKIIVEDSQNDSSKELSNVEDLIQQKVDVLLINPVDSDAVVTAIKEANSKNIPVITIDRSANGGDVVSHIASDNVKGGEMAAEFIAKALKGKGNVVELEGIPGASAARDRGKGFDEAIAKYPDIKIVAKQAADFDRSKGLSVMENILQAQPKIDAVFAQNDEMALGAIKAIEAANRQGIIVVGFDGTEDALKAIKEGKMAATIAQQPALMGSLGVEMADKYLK
# T2: native RPtag(small) (Thermoanaerobacter tengcongensis, N-terminal rhodamine)
# T2 construct: Synthetic peptide
# T2 peptide: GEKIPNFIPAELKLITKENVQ
# T3: RPtag(small) l14k (Thermoanaerobacter tengcongensis, N-terminal rhodamine)
# T3 construct: also called L14K RPtag(small)
# T3 peptide: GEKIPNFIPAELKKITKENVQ
# T4: RPtag(small) l14a (Thermoanaerobacter tengcongensis, N-terminal rhodamine)
# T4 peptide: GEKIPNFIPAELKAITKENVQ
# T5: RPtag(small) Nd2, Cd4 (Thermoanaerobacter tengcongensis)
# T5 peptide: RhodamineB-KIPNFIPAELKLITK
# T6: MaturePDGF-β_NterminalPeptide
# T6 construct: an N-terminal G was added and is left out of the numbering; also called PDGF-β peptide
# T6 peptide: RhodamineB-GSLGSLTIAEPAMIAE
# B1: RPtag(small) Nd8, Cd4 (peptide)
# peptide: PAELKLITK
# modifications: not checked
# B2: NativeRPtag(large)_with_Tags_and_Cys (other)
# chain: MGSSCHHHHHHSQDPNSSSMKEGKTIGLVISTLNNPFFVTLKNGAEEKAKELGYKIIVEDSQNDSSKELSNVEDLIQQKVDVLLINPVDSDAVVTAIKEANSKNIPVITIDRSANGGDVVSHIASDNVKGGEMAAEFIAKALKGKGNVVELEGIPGASAARDRGKGFDEAIAKYPDIKIVAKQAADFDRSKGLSVMENILQAQPKIDAVFAQNDEMALGAIKAIEAANRQGIIVVGFDGTEDALKAIKEGKMAATIAQQPALMGSLGVEMADKYLK
# notes: Unlabeled in anisotropy assays; coupled through the engineered N-terminal Cys to SulfoLink agarose or maleimide plates in column, pull-down and ELISA assays
# B3: RP-Tag Small (Sequence 3: SEQ ID NO:13 with a glycine serine tail) (peptide)
# peptide: RhodamineB-GEKIPNFIPAELKLITKENVQGS
# modifications: also: N-terminal label: Rhodamine B / Rhodamine 6B
# notes: also called RP-small peptide
# B4: RPtag(small) p5a (peptide)
# peptide: RhodamineB-GEKIANFIPAELKLITKENVQ
# Key:
# [1] = target: T1, NativeRPtag(large)_with_Tags_and_Cys …; assay: fluorescence anisotropy, buffer additive screen
# [2] = target: T1, NativeRPtag(large)_with_Tags_and_Cys …; assay: fluorescence anisotropy; MnSO4 (10 mM)
# [3] = target: T1, NativeRPtag(large)_with_Tags_and_Cys …; assay: fluorescence anisotropy; BME (10%)
# [4] = target: T1, NativeRPtag(large)_with_Tags_and_Cys …; assay: fluorescence anisotropy; PG (50%)
# [5] = target: T1, NativeRPtag(large)_with_Tags_and_Cys …; assay: fluorescence anisotropy; EtOH (20%); EtOH (20%)
# [6] = target: T1, NativeRPtag(large)_with_Tags_and_Cys …; assay: fluorescence anisotropy; DMSO (20%); DMSO (20%)
# [7] = target: T1, NativeRPtag(large)_with_Tags_and_Cys …; assay: fluorescence anisotropy; TritonX-100 (2%)
# [8] = target: T1, NativeRPtag(large)_with_Tags_and_Cys …; assay: fluorescence anisotropy; Tween20 (2%)
# [9] = target: T1, NativeRPtag(large)_with_Tags_and_Cys …; assay: fluorescence anisotropy; NiCl2 (100 mM)
# [10] = target: T1, NativeRPtag(large)_with_Tags_and_Cys …; assay: fluorescence anisotropy; KCl (3M)
# [11] = target: T1, NativeRPtag(large)_with_Tags_and_Cys …; assay: fluorescence anisotropy; No Additive; No Additive; 100 mM Tris pH 8.0, 0.005% Tween 20 (Table 3)
# [12] = target: T1, NativeRPtag(large)_with_Tags_and_Cys …; assay: pull-down with RPtag(large) resin
# [13] = target: T1, NativeRPtag(large)_with_Tags_and_Cys …; assay: fluorescence anisotropy; NH4SO4 (3M)
# [14] = target: T1, NativeRPtag(large)_with_Tags_and_Cys …; assay: fluorescence anisotropy, competitor chase; 50 mM Tris pH 8.0, 0.005% Tween 20, no additive (Table 2)
# [15] = target: T1, NativeRPtag(large)_with_Tags_and_Cys …; assay: fluorescence anisotropy; NaCl (3M)
# [16] = target: T1, NativeRPtag(large)_with_Tags_and_Cys …; assay: fluorescence anisotropy; sorbitol (3M)
# [17] = target: T1, NativeRPtag(large)_with_Tags_and_Cys …; assay: fluorescence anisotropy; acetone (20%)
# [18] = target: T1, NativeRPtag(large)_with_Tags_and_Cys …; assay: fluorescence anisotropy; DTT (100 mM)
# [19] = target: T1, NativeRPtag(large)_with_Tags_and_Cys …; assay: fluorescence anisotropy; 50 mM Tris pH 8.0, 0.005% Tween 20, no additive (Table 2)
# [20] = target: T1, NativeRPtag(large)_with_Tags_and_Cys …; assay: fluorescence anisotropy; glycerol (20%)
# [21] = target: T1, NativeRPtag(large)_with_Tags_and_Cys …; assay: fluorescence anisotropy; MgCl2 (3M)
# [22] = target: T1, NativeRPtag(large)_with_Tags_and_Cys …; assay: fluorescence anisotropy; MeOH (20%); MeOH (20%)
# [23] = target: T1, NativeRPtag(large)_with_Tags_and_Cys …; assay: fluorescence anisotropy; ribose (3M)
# native RPtag(small) [24] = target: T2, native RPtag(small); assay: fluorescence anisotropy after a 15 min 121 C autoclave cycle of RP-tag (large); RP-tag (large) autoclaved 15 min at 121 C before the measurement
# RPtag(small) l14k = target: T3, RPtag(small) l14k; assay: fluorescence anisotropy; 1 nM rhodamine RPtag small peptide, unlabeled RPtag large titrated, 1 h; 50 mM Tris pH 8.0, 0.005% Tween20; bar of Ka = 1/Kd
# Protocol: (§1) Resultant curves were fit with the equation f=y0+(ymax−y0)*(Ptot+x+Kd−sqrt((Ptot+x+Kd)\hat{ }2−4*Ptot*x))/(2*Ptot), where y0 is the baseline anisotropy, ymax is the maximum anisotropy, Ptot is the fixed concentration of labeled peptide used, x is the variable concentration of protein used, and Kd is the measured Kd. […] Buffer was 50 mM Tris pH 8.0, 0.005% tween20.
# RPtag(small) l14a = target: T4, RPtag(small) l14a; assay: as above
# Protocol: as §1
# native RPtag(small) [25] = target: T2, native RPtag(small); assay: fluorescence anisotropy, 1 nM rhodamine peptide
# Protocol: (§2) Kd's were calculated according to the equation f=y0+(ymax−y0)*(Ptot+x+Kd−sqrt((Ptot+x+Kd)\hat{ }2−4*Ptot*x))/(2*Ptot), where y0 is the baseline anisotropy, ymax is the maximum anisotropy, Ptot is the fixed concentration of labeled peptide used, x is the variable concentration of protein used, and Kd is the measured Kd.
# RPtag(small) Nd2, Cd4 = target: T5, RPtag(small) Nd2, Cd4; assay: fluorescence anisotropy; 2 nM rhodamine Nd2Cd4, unlabeled RPtag large variant titrated; bar of Ka = 1/Kd, right axis
# Protocol: (§3) After the incubation, fluorescence anisotropy was measured, and the resultant curves were fit with the equation f=y0+(ymax−y0)*(Ptot+x+Kd−sqrt((Ptot+x+Kd)\hat{ }2−4*Ptot*x))/(2*Ptot), where y0 is the baseline anisotropy, ymax is the maximum anisotropy, Ptot is the fixed concentration of labeled peptide used, x is the variable concentration of protein used, and Kd is the measured Kd. […] Buffer was 50 mM Tris pH 8.0, 0.005% Tween20.
# native RPtag(small) [26] = target: T2, native RPtag(small); assay: fluorescence anisotropy; 1 nM rhodamine native RPtag (small), RPtag (large) titrated
# Protocol: as §2
# [27] = target: B3; assay: fluorescence anisotropy, 50 nM Rhodamine B RP-Tag Small
# Protocol: (§4) Anisotropy was then measured, and a Kd calculated by fitting the data to the equation f=y₀+(yₘₐₓ−y₀)*(Pₜₒₜ+x+Kd−sqrt((Pₜₒₜ+x+Kd)\hat{ }2-4*Pₜₒₜ*x))/(2*Pₜₒₜ), where y₀ is the baseline anisotropy, yₘₐₓ is the maximum anisotropy, Pₜₒₜ is the fixed concentration of labeled peptide used, x is the variable concentration of protein used, and Kd is the measured Kd.
# [28] = target: T6, MaturePDGF-β_NterminalPeptide; assay: fluorescence anisotropy, 20 nM rhodamine PDGF-β N-terminal peptide
# Protocol: as §3
# [29] = target: B3; assay: fluorescence anisotropy; 50 nM N-terminal Rhodamine B RP-Tag Small, RP-Tag Large titrated; 50 mM Tris pH 8.0, 150 mM NaCl, 10 mM 2-mercaptoethanol, 0.005% Tween 20
# Protocol: as §4
# native RPtag(small) [30] = target: T2, native RPtag(small); assay: fluorescence anisotropy
# Protocol: as §2
# Bovine Serum Albumin = target: T7, Bovine Serum Albumin (bovine, UniProt P02769 25-607); assay: fluorescence anisotropy; 50 nM N-terminal Rhodamine B RP-Tag Small, BSA titrated
# T7 construct: also called BSA
# Protocol: as §4
# [31] = target: B2; assay: fluorescence anisotropy kinetics
# [32] = target: B2; assay: fluorescence anisotropy
# [33] = target: B2; assay: fluorescence anisotropy, association kinetics
# [34] = target: B2; assay: fluorescence anisotropy, competitor chase
# [35] = target: B2; assay: calculated from koff and Kd
# T7 sequence (P02769 25-607 limits assumed): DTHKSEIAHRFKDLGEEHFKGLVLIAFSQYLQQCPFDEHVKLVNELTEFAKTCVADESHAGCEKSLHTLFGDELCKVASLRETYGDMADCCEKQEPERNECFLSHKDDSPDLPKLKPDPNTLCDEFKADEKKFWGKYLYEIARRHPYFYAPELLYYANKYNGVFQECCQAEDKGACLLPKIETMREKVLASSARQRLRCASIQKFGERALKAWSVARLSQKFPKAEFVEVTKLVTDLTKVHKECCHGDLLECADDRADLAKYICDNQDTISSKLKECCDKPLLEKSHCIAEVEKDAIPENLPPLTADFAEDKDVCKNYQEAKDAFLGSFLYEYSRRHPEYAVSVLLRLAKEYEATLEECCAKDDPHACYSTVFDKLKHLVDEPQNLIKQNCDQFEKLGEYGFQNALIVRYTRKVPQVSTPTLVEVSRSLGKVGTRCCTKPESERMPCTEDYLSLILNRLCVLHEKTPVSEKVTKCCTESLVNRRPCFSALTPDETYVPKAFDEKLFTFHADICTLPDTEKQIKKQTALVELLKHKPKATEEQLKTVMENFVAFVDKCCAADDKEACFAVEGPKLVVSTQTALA
binder,measurement,setting,value
B1,"fold increase of affinity with kosmotropic salts (NaCl, KCl)",[1],> 100 fold
same,Kd,[2],160 nM
same,Kd,[3],740 nM
same,Kd,[4],4600 nM
same,Kd,[5],733 nM
same,Kd,[6],140 nM
same,Kd,[7],180 nM
same,Kd,[8],45 nM
same,Kd,[9],42 nM
same,Kd,[10],0.066 nM
same,Kd,[11],14 nM
same,resin binding capacity,[12],200 nmol/mL
same,Kd,[13],2.8 nM
same,koff,[14],> 0.0333 s⁻¹
same,Kd,[15],0.15 nM
same,Kd,[16],16 nM
same,Kd,[17],22 nM
same,Kd,[18],33 nM
same,Kd,[19],14 nM
same,Kd,[20],27 nM
same,Kd,[21],240 nM
same,Kd,[22],34 nM
same,Kd,[23],42 nM
B2,Kd,native RPtag(small) [24],53 nM
same,binding result,RPtag(small) l14k,binds
same,binding result,RPtag(small) l14a,binds
same,Kd,native RPtag(small) [25],0.2 nM
same,binding result,"RPtag(small) Nd2, Cd4",binds
same,EC50 (read off the curve),native RPtag(small) [26],~0.8 nM
same,Kd,[27],8 nM
same,Kd,[28],7300 nM
same,EC50 (read off the curve),[29],~30 nM
same,fold better Kd than anti-6xHis/6xHis,native RPtag(small) [30],~30 fold
same,fold selectivity over BSA,native RPtag(small) [30],> 50000 fold
B3,binding result,Bovine Serum Albumin,no binding
B4,fold increase of kon and koff against native,[31],~7 fold
same,Kd,[32],0.23 nM
same,Keq (S-S*),[33],1.8
same,kf (S to S*),[33],0.093 min⁻¹
same,kr (S* to S),[33],0.052 min⁻¹
same,koff,[34],0.0004 s⁻¹
same,kon,[35],1.83e+06 M⁻¹ s⁻¹
